The values below come from patent US20120283421A1 (published 2012).

For orientation: IC50 means the midpoint of a concentration-inhibition curve.

For this assay, the target named is T1, nine-person peanut-specific IgE antibody pool.
T1 construct: polyclonal human serum IgE; also called pooled serum; peanut-positive serum pool
Description: competitive ELISA inhibition, pooled serum IgE on coated crude peanut. In general terms: In an ELISA, binding on a coated surface is turned into a signal by an enzyme label.

B1: Ara h 1 (purified from peanut) (other)
chain: KSSPYQKKTENPCAQRCLQSCQQEPDDLKQKACESRCTKLEYDPRCVYDPRGHTGTTNQRSPPGERTRGRQPGDYDDDRRQPRREEGGRWGPAGPREREREEDWRQPREDWRRPSHQQPRKIRPEGREGEQEWGTPGSHVREETSRNNPFYFPSRRFSTRYGNQNGRIRVLQRFDQRSRQFQNLQNHRIVQIEAKPNTLVLPKHADADNILVIQQGQATVTVANGNNRKSFNLDEGHALRIPSGFISYILNRHDNQNLRVAKISMPVNTPGQFEDFFPASSRDQSSYLQGFSRNTLEAAFNAEFNEIRRVLLEENAGGEQEERGQRRWSTRSSENNEGVIVKVSKEHVEELTKHAKSVSKKGSEEEGDITNPINLREGEPDLSNNFGKLFEVKPDKKNPQLQDLDMMLTCVEIKEGALMLPHFNSKAMVIVVVNKGTGNLELVAVRKEQQQRGRREEEEDEDEEEEGSNREVRRYTARLKEGDVFIMPAAHPVAINASSELHLLGFGINAENNHRIFLAGDKDNVIDQIEKQAKDLAFPGSGEQVEKLIKNQKESHFVSARPQSQSQSPSSPEKESPEKEDQEEENQGGKGPLLSILKAFN
modifications: glycoprotein (PAS positive); fluorescein-labelled tracer in Example 6
notes: Native allergen from peanut extract; Forms trimers and hexamers
In the case of B1, the concentration for half-maximal inhibition (IC50) was 5.5 ng/mL.
